Consider twelve molecules from patent CN112574312A (DONGDA BIOTECHNOLOGY SUZHOU CO LTD, dated 2021).

Test [1] addresses T1, 人源OX40的胞外区与小鼠Fc融合蛋白(OX40-ECD-mFc) (human, UniProt P43489 29-214).
T1 construct: extracellular domain; also called OX40-mFc; not shown: mouse Fc
T1 sequence (looked up): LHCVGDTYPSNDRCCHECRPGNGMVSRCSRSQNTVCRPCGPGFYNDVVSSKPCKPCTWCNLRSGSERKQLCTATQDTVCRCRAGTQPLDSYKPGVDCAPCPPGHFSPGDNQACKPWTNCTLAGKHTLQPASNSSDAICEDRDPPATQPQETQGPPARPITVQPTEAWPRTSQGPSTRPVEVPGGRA
Kind of test: ELISA on OX40-mFc (Fig. 7). A general note: In an ELISA, binding on a coated surface is turned into a signal by an enzyme label.

The target in test [2] is T2, 人OX40 (Jurkat-OX40细胞) (human, UniProt P43489 29-277).
T2 construct: whole, on cells; also called OX40受体; CD134
T2 sequence (looked up): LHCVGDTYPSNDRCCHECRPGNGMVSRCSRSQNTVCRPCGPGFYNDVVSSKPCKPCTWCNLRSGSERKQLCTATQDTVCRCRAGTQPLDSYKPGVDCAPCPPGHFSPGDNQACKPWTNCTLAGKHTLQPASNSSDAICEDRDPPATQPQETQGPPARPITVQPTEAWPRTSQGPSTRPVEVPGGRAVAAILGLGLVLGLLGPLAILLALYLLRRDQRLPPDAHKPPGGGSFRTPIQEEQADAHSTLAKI
Kind of test: FACS on Jurkat-OX40 cells (Fig. 9).

Test [3] has as its target T3, 人源OX40的胞外区与人Fc融合蛋白(OX40-hFc) (human, UniProt P43489 29-214).
T3 construct: extracellular domain; Coated on ELISA plates at 2 μg/mL; not shown: human Fc
T3 sequence (looked up): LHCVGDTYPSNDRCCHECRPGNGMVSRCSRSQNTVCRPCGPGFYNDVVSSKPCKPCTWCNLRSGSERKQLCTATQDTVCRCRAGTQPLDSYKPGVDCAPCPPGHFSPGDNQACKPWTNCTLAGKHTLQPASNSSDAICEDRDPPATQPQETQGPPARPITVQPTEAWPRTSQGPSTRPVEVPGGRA
Description: ELISA on coated OX40-hFc (Fig. 1).

Test [4] deals with T2, 人OX40 (Jurkat-OX40细胞). Kind of test: FACS on Jurkat-OX40 cells (Fig. 3).

B1: 抗人OX40人源化抗体3C9 (antibody, IgG1, V domains shown)
VH: QVQLVQSGAEVKKPGASVKVSCKASGYTFTSYIMHWVRQAPGQGLEWIGYINPYNGGSRYNDKFKVRATLTSDKSISTAYMELSRLRSDDTAVYYCARGDYDDGAWFGYWGQGTTVTVSS
VL: DIVMTQSPLSLPVTPGEPASISCKSSQSLLHSNGITYLFWYLQKPGQSPQLLIYRMSNRASGVPDRFSSSGSGTDFTLKISRVEAEDVGVYYCGQNLELPVTFGQGTKLEIK
notes: expressed in 293 cells; also called hu3C9; hu3C9-hIgG1
Take B1: the binding result in test [1] and in test [2] was “binds” in each case.

B2: 抗人OX40鼠源抗体3D9 (antibody, V domains shown)
VH: QVQLQESGPGLVAPSQSLSITCTVSGFSLTTYGITWVRQPPGKGLEWLGVIWDDGSTNYHSALISRLSISKNNYKSQVFLTLNSLQTDDTATYYCAKLLPYYFDSWGQGTTLTVSS
VL: DIVMTQSPSSLSASLGDRVTISCRASQDISNYLNWYQQKPNGTVKLLIYYTSRLLSGVPSRFSGSGSGTDYSLTISSLEQEDIATYFCQQGYTLPPTFGGGTKLEIK
notes: Mouse hybridoma antibody purified by Protein A
Regarding B2, the binding result in test [3] and in test [4] was “binds” throughout.

B3: 抗人OX40鼠源抗体3F5 (antibody, V domains shown)
VH: EVQLVESGGDLVRPGGSLKLSCAASGFTFGSYAMSWVRQSPEKRLEWVAEISSGGIYTYYADIVTGRFTTSRDNAKNTLYLEMSSLRSEDTAMYYCVRDFDYRFAYWGQGTLVTVSA
VL: DIQMTQTTSSLSASLGDRVTISCKSSQEISGYLAWLQQKPDGTVKRLIYAASSLDVGVPSRFSGSRSGSDYSLTISNLEPEDIATYYCFQYASYPYTFGGGTKLEIK
notes: as for B2
As for B3, the binding result in test [3] and in test [4] was “binds” each time.

B4: 抗人OX40鼠源抗体1G4 (antibody, V domains shown)
VH: RVQLVQSGPELKKPGETVKISCKASGYTFTDYSIHWVKQAPGKGLKWMGWINTETGESTYADDFKGRFVFSSEISATTAYLQINSLKNEDTSTYFCAWVPPWYFDVWGAGTTVTVSS
VL: DIVMTQSTTSLSVSLGDRVTINCRTSQDITNYLNWYQQKPDGTIKLLIYYTSMLKSGVPSRFSGSGSGTDYSLTISHLEQDDIATYFCQQGNTPPLTFGAGTKLELK
notes: as for B2
On to B4, for which the binding result in test [3] and in test [4] was “binds” throughout.

B5: 抗人OX40人源化抗体1A2 (antibody, V domains shown)
VH: QVTLKESGPTLVKPTQTLTLTCTFSGFSLATSGVAVGWIRQPPGKALEWLAHIWWDDVKRYNPSLQGRLTITKDTSKNQVVLTMTNMDPVDTATYYCARMDWDGLAYWGQGTLVTVSS
VL: EIVLTQSPATLSLSPGERATLSCSVSSSISSSNLHWYQQKPGQAPRPWIYGTSNLATGIPARFSGSGSGTDYTLTISSLEPEDFAVYYCQQYSSYPFTFGGGTKVEIK
notes: expressed in 293 cells; also called hu1A2; 1A2人源化抗体
With B5, the binding result in test [1] and in test [2] was “binds” throughout.

B6: 抗人OX40鼠源抗体15A7 (antibody, V domains shown)
VH: QVQLQQSGPGLAKPSQTLSLTCSVTGYSITSDYWNWIRKFPGNKLEYMGYISYSGSTSYNPSLKSRISITRDTSKNQYYLQLSSVTTEDTATYYCARGGYYYGSSYPYYFDYWGQGTTLTVSS
VL: DIVMTQSTKFMSTTVGDRVSITCKASQNVGTAVAWYQQKPGQSPKLLIYSPSNRYTGVPDRFTGSGSGTDFTLTITNVQSEDLADYFCQQYSSYRTFGGGTKLEIK
notes: as for B2
In the case of B6, the binding result in test [3] and in test [4] was “binds” throughout.

B7: 抗人OX40人源化抗体15A7 (antibody, IgG1, V domains shown)
VH: QVQLQESGPGLVKPSETLSLTCTVSGYSITSDYWNWIRQPPGKGLEYMGYISYSGSTSYNPSLKSRITISRDTSKNQYSLKLSSVTAADTAVYYCARGGYYYGSSYPYYFDYWGQGTLVTVSS
VL: DIQMTQSPSTLSASVGDRVTITCKASQNVGTAVAWYQQKPGKAPKLLIYSPSNRYTGVPSRFSGSGSGTEFTLTISSLQPDDFATYYCQQYSSYRTFGGGTKVEIK
notes: expressed in 293 cells; also called hu15A7; hu15A7-hIgG1
Regarding B7, the binding result in test [1] and in test [2] was “binds” each time.

B8: 抗人OX40人源化抗体3F5 (antibody, IgG1, V domains shown)
VH: EVQLVESGGGLVQPGGSLRLSCAASGFTFGSYAMSWVRQAPGKGLEWVAEISSGGIYTYYADIVTGRFTTSRDNAKNSLYLQMNSLRAEDTAVYYCVRDFDYRFAYWGQGTLVTVSS
VL: DIQMTQSPSSLSASVGDRVTITCKSSQEISGYLAWLQQKPGKAPKRLIYAASSLDVGVPSRFSGSRSGSEYTLTISSLQPEDFATYYCFQYASYPYTFGQGTKLEIK
notes: expressed in 293 cells; also called hu3F5; hu3F5-hIgG1
As for B8, the binding result in test [1] and in test [2] was “binds” each time.

B9: 抗人OX40鼠源抗体3C9 (antibody, V domains shown)
VH: DVQLQQSGPELVKPGASVRMSCKASGYTFTSYIMHWVKQKPGQGLEWIGYINPYNGGSRYNDKFKVKATLASDKSSSTAYMELSSLTSADSAVYYCARGDYDDGAWFGYWGQGTLVTVSA
VL: EIQMTQAAPSVPVTPGESVSISCKSSQSLLHSNGITYLFWYLQRPGQSPQLLIYRMSNRASGVPDRFSSSGSGTAFTLKISRVEADDVGVYYCGQNLELPVTFGAGTKVELK
notes: as for B2
On to B9, for which the binding result in test [3] and in test [4] was “binds” throughout.

B10: 抗人OX40鼠源抗体1A2 (antibody, IgG1, V domains shown)
VH: EVQLKESGPGIVQPSQSLSLTCTFSGFSLATSGVAVGWIRQPSGKGLEWLAHIWWDDVKRYNPSLQGRLTISKDTASSQVFLKISSVDTADTATYYCARMDWDGLAYWGAGTTVTVSA
VL: EIVLTQSPALMAASPGEKVTITCSVSSSISSSNLHWYQQKSETSPKPWIYGTSNLATGVPVRFSGSGSGTSYSLTISSMEAEDAATYYCQQYSSYPFTFGGGTKLEIK
notes: Mouse hybridoma antibody purified by Protein A; also called 1A2-mIgG1
With B10, the binding result in test [3] and in test [4] was “binds” each time.

B11: 抗人OX40鼠源抗体9G7 (antibody, V domains shown)
VH: EVKLVESGGGLVQPGGSLKLSCAASGFTFSDYYMYWVRQTPEKRLEWVAYISNGDISTYYPDTVKGRFTISRDNAKNTLYLQMSRLKSEDTAMYYCARDDGYSAWFAYWGQGTLVTVSA
VL: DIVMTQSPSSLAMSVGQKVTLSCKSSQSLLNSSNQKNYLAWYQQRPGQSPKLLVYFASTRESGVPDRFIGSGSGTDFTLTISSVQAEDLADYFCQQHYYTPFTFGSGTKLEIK
notes: as for B2
Regarding B11, the binding result in test [3] and in test [4] was “binds” throughout.

B12: 抗人OX40鼠源抗体17C1 (antibody, V domains shown)
VH: DVQLQESGPGLVKPSQSLSLTCTVTGYSITSDYAWNWIRQFPGNKLEWMGYITYSGFTRYNPSLKSRFSITRDTSKNQFFLQLNSVTTEDTATYYCVYPAWFAYWGQGTLVTVSA
VL: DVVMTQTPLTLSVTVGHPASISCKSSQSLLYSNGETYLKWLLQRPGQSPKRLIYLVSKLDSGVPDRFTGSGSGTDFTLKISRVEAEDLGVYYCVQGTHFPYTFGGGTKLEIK
notes: as for B2
Regarding B12, the binding result in test [3] and in test [4] was “binds” each time.
